Reference: patent US7790155B2, “Calbindin-D28K protection against glucocorticoid induced cell death” (University of Medicine and Dentistry of New Jersey, priority 2002, dated 2010)
“Also recorded” adds a separate entry of the source.

B1: calbindin-D28k: calcium binding protein (polypeptide of SEQ ID NO:2), expressed in cells from pREP4 or BSRα calbindin-D28k expression vectors (protein, listed as Homo sapiens)
chain: MAESHLQSSLITASQFFEIWLHFDADGSGYLEGKELQNLIQELQQARKKAGLELSPEMKTFVDQYGQRDDGKIGIVELAHVLPTEENFLLLFRCQQLKSCEEFMKTWRKYDTDHSGFIETEELKNFLKDLLEKANKTVDDTKLAEYTDLMLKLFDSNNDGKLELTEMARLLPVQENFLLKFQGIKMCGKEFNKAFELYDQDGNGYIDENELDALLKDLCEKNKQDLDINNITTYKKNIMALSDGGKLYRTDLALILCAGDN

How the values were obtained:
primary osteoblasts = experiment: Dexamethasone induced cell death of primary osteoblasts, trypan blue uptake; assay type: cell-based, murine; conditions: 16 h dex. treatment (10^−6M)
Method: Cell viability was monitored by trypan blue exclusion. Nonadherent cells were combined with adherent cells released from the culture dish using trypsin-EDTA, resuspended in medium containing serum and collected by centrifugation. 0.04% trypan blue was added and the 150 cells per condition are counted). DNA fragmentation was measured by the TUNEL (transferase biotin-dUTP nick endlabeling). […] 104, 1363-1374; and Bellido, T., O'Brien, C. A., Roberson, P. K., and Manolagas, S. C. (1998) J. Biol. Chem. 273, 21137-21144).
In addition to MLO-Y4 cells, it will also be possible to determine the effect of dexamethasone in the presence or absence of calbindin-D28k on apoptotic cell death and on caspase 3 activity (with the methodology outlined above) using primary osteoblastic cells from calbindin-D28k KO and WT mice. Murine osteoblasts will be isolated from pups 30-72 h old from our colony of WT (C57BL6) or calbindin-D28k KO mice (cite 22 of grant, cite 111 of grant) by controlled digestion with collagenase (cite 112 of grant). Briefly calvariae, trimmed of fibrous tissue and divided in 2 are transferred to 15 ml conical sterile tubes, washed with PBS (5 ml) 3× at 37° C. (10 min/wash) in an oscillating H2O bath. Calvariae are then subjected to a series of collagenase digestions (200 μg/Ml PBS collagenase CLS2 from Worthington) in an oscillating 37° C. […]

MLO-Y4 osteocytic cells = experiment: Dexamethasone induced cell death of MLO-Y4 cells transfected with calbindin-D28k expression vector (trypan blue, TUNEL, morphology); assay type: cell-based, murine; conditions: MLO-Y4 cells transfected with pREP4 or BSRα calbindin-D28k vector vs vector alone, 10^−6M dexamethasone, 6, 12 and 24 h
Method: Murine osteocytic MLO-Y4 cells (provided by Dr. Lynda Bonewald, University of Texas Health Center at San Antonio, Tex.), and primary bone cells (isolated from neonatal murine calvaria) were cultured as indicated previously (Kato, Y., Windle, J. J., Koop, B. A., Mundy, G. R., and Bonewald, L. F. (1997) J. Bone Miner Res. 12, 2014-2023) (Bellido, T., Borba, V. Z. C., Roberson, P. K., and Manolagas, S. C. (1997) Endocrinology 138, 3666-3676). All culture media contained 100 units/ml penicillin and 100 μg/ml streptomycin. Cultures were kept in a humidified atmosphere of 5% CO2 in air at 37° C.
Transient transfections of MLO-Y4 cells were carried out in 12-well culture plates using SUPERFECT®. […] After 6, 12 and 24 h, apoptosis was induced by addition of 10^−6M dexamethasone and quantified as indicated below or cell lysates collected for the analysis of calbindin-D28k by Western blotting and radioimmunoassay (cite 65 of grant).
Cell viability was monitored by trypan blue exclusion. […] 0.04% trypan blue was added and the 150 cells per condition are counted). DNA fragmentation was measured by the TUNEL (transferase biotin-dUTP nick endlabeling). […]
Data were analyzed by one-way analysis of variance, and the Student-Keuls-Newman method was used to estimate the level of significance of differences between means. […]

MC3T3-E1 cells = MC3T3-E1 cells transfected with calbindin-D28K cDNA vs empty vector; cited from earlier work
lymphocytes = conditions: stable expression of calbindin-D28k cDNA in lymphocytes (Dowd et al. 1992); cited from earlier work

| Molecule | % of dead cells (trypan blue uptake) (primary osteoblasts; in the absence of calbindin-D28k) [%] | protection against glucocorticoid (dexamethasone) induced cell death (MLO-Y4 osteocytic cells) | protection against glucocorticoid (dexamethasone) induced cell death (MLO-Y4 osteocytic cells; listed as calbindin-D28K) | % of dead cells (trypan blue uptake) (primary osteoblasts; in the presence of calbindin-D28k, p<0.05) [%] | pro-apoptotic effect of TNF (nuclear fragmentation) (MC3T3-E1 cells) | protection against glucocorticoid induced lymphocyte cell death (lymphocytes) |
| --- | --- | --- | --- | --- | --- | --- |
| C[C@@H]1C[C@H]2[C@@H]3CCC4=CC(=O)C=C[C@]4(C)[C@@]3(F)[C@@H](O)C[C@]2(C)[C@@]1(O)C(=O)CO [dex., dexamethasone, reference compound] | 23.2±3 |  |  |  |  |  |
| B1 |  | protection; also recorded: protected against glucocorticoid induced cell death | protection against dexamethasone induced cell death | 12.9±2.4 | significantly attenuated | protect against glucocorticoid induced lymphocyte cell death |
